In US20200040070A1 (CHEMOMAB, published 2020):

Legend:
MCP3 (CCL7) = MCP3 (CCL7) (UniProt P80098 24-99); assay: SPR (Biacore T200), HCM101 immobilized on CM-1 chip, chemokine in solution; MCP3 (CCL7)
Description: (§1) The affinity constant of HCM101 was evaluated using Biacore T200. This method uses Surface Plasmon Resonance (SPR) electro-optical phenomenon to measure the binding constants and on/off rates between binding partners. HCM101 was immobilized on a surface of a CM-1 chip, and a solution of eotaxin 1 (CCL11)/MCP3 (CCL7) was passed over the surface. The changes in SPR angle were measured and enabled to determine the KD (equilibrium dissociation constant).
(§2) Biacore, an SPR based technology was used in order to examine the binding affinity of HCM101, generated by CHO cells, to other, non-CCL24 chemokines.

Eotaxin 1 (CCL11) = molecular target: T1, Eotaxin 1 (CCL11) (human, UniProt P51671 24-97); assay: SPR (Biacore T200), HCM101 immobilized on CM-1 chip, chemokine in solution; Eotaxin 1 (CCL11)
T1 construct: also called human CCL11
Description: as §1, §2

T1 sequence (P51671 24-97 limits assumed): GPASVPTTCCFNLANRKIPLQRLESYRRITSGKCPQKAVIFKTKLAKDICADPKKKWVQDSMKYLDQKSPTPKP
MCP3 (CCL7), sequence (P80098 24-99 limits assumed): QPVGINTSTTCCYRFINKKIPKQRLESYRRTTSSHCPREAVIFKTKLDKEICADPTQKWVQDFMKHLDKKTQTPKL

B1: fully humanized anti CCL24 antibody HCM101 (antibody, V domains shown)
VH: QIQLVQSGPELKKPGASVKVSCRASGYPFTNSGMNWVKQAPGKGLKWMGWINTYNGEPTYTDDFKGRFAFSLETSASTAYLQINNLRNEDTATYFCASHSYGSSYAMDNWGQGTSVTVSS
VL: DIVLTQSPDSLAVSLGERATINCKASQSVDYDGDSYMNWYQQKPGQPPKLLIYVASNLKSGIPARFSGSGSGTDFTLTISSLQPEDFATYYCQQSNEEPWTFGGGTKVEIK
notes: also called humanized version of CM101
Kd (MCP3 (CCL7)): 130 nM
Kd (Eotaxin 1 (CCL11)): 30 nM
